In US20240190962A1 (IMMUNOWAKE, published 2024):
Substitutions are numbered along the chain they refer to. Names and notes keep the numbering of the source.

T1: human IL-2 receptor (IL-2Rα, IL-2Rβ, IL-2Rγ) (human, UniProt P01589 22-272; P14784 27-551; P31785 23-369)
T1 sequence (looked up) 1: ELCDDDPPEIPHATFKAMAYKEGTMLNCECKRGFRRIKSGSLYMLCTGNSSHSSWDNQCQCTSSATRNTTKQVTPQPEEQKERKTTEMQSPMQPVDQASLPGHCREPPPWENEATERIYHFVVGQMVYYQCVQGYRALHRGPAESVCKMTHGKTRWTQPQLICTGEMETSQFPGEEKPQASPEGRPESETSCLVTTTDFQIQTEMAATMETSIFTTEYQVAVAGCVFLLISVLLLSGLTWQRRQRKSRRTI
T1 sequence (looked up) 2: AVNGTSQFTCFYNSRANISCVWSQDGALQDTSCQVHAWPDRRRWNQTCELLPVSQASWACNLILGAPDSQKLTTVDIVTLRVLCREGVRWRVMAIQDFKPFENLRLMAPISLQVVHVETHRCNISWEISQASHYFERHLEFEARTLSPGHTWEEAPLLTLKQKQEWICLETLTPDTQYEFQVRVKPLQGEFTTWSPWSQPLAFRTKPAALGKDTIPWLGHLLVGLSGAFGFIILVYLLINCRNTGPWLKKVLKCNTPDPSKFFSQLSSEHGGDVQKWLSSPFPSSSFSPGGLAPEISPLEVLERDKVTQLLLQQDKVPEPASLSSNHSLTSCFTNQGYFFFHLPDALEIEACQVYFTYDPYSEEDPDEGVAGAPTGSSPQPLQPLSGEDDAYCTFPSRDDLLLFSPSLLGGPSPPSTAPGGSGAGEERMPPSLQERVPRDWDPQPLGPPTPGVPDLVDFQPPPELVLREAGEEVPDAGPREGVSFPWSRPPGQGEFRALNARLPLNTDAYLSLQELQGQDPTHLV
T1 sequence (looked up) 3: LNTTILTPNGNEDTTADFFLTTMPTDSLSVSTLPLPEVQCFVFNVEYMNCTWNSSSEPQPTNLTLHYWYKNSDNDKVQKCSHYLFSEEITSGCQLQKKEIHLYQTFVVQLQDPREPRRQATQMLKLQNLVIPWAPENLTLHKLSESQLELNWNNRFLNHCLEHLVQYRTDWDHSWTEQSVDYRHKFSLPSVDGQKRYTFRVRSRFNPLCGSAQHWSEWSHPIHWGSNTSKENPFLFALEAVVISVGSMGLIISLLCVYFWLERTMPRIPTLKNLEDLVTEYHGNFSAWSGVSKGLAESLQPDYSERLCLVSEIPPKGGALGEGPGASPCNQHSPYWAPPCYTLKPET

B1: PD-L1(mut2)-Fc/IL-12(E59A/F60A) (Fc fusion)
chain 1: FTVTVPKDLYVVEYGSNMTIECKFPVEKQLDLAALQVYWMMEDKNIIQFVHGEEDLKVQHSSYRQRARLLKDQLSLGNAALQITDVKLQDAGVYTCLIAYKGADYKRITVKVNAPYNKINQRILVVDPVTSEHELTCQAEGYPKAEVIWTSSDHQVLSGKTTTTNSKREEKLFNVTSTLRINTTTNEIFYCTFRRLDPEENHTAELVIPELPLAHPPNERGGGGSGGGDKTHTCPPCPAPEDEGGPSVFLFPPKPKDTLMISRTPEVTCVVVDVSHEDPEVKFNWYVDGVEVHNAKTKPREEQYNSTYRVVSVLTVLHQDWLNGKEYKCKVSNKALPAPIEKTISKAKGQPREPQVYVYPPSREEMTKNQVSLTCLVKGFYPSDIAVEWESNGQPENNYKTTPPVLDEDGSFALVSKLTVDKSRWQQGNVFSCSVMHEALHNHYTQKSLSLSPGKGGGGSGGGIWELKKDVYVVELDWYPDAPGEMVVLTCDTPEEDGITWTLDQSSEVLGSGKTLTIQVKAAGDAGQYTCHKGGEVLSHSLLLLHKKEDGIWSTDILKDQKEPKNKTFLRCEAKNYSGRFTCWWLTTISTDLTFSVKSSRGSSDPQGVTCGAATLSAERVRGDNKEYEYSVECQEDSACPAAEESLPIEVMVDAVHKLKYENYTSSFFIRDIIKPDPPKNLQLKPLKNSRQVEVSWEYPDTWSTPHSYFSLTFCVQVQGKSKREKKDRVFTDKTSATVICRKNASISVRAQDRYYSSSWSEWASVPCSGGGGSGGGSGGGGSRNLPVATPDPGMFPCLHHSQNLLRAVSNMLQKARQTLEFYPCTSEEIDHEDITKDKTSTVEACLPLELTKNESCLNSRETSFITNGSCLASRKTSFMMALCLSSIYEDLKMYQVEFKTMNAKLLMDPKRQIFLDQNMLAVIDELMQALNFNSETVPQKSSLEEPDFYKTKIKLCILLHAFRIRAVTIDRVMSYLNAS
chain 2: FTVTVPKDLYVVEYGSNMTIECKFPVEKQLDLAALQVYWMMEDKNIIQFVHGEEDLKVQHSSYRQRARLLKDQLSLGNAALQITDVKLQDAGVYTCLIAYKGADYKRITVKVNAPYNKINQRILVVDPVTSEHELTCQAEGYPKAEVIWTSSDHQVLSGKTTTTNSKREEKLFNVTSTLRINTTTNEIFYCTFRRLDPEENHTAELVIPELPLAHPPNERGGGGSGGGDKTHTCPPCPAPEKKGGPSVFLFPPKPKDTLMISRTPEVTCVVVDVSHEDPEVKFNWYVDGVEVHNAKTKPREEQYNSTYRVVSVLTVLHQDWLNGKEYKCKVSNKALPAPIEKTISKAKGQPREPQVYVLPPSREEMTKNQVSLLCLVKGFYPSDIAVEWESNGQPENRYMTWPPVLDSDGSFFLYSKLTVDKSRWQQGNVFSCSVMHEALHNHYTQKSLSLSPGK
B2: IL-2(L18R/Q22E/R38D/K43E/E61R)/IL-12(E59A/F60A)/PD-L1(mut2)-Fc (Fc fusion)
chain 1: FTVTVPKDLYVVEYGSNMTIECKFPVEKQLDLAALQVYWMMEDKNIIQFVHGEEDLKVQHSSYRQRARLLKDQLSLGNAALQITDVKLQDAGVYTCLIAYKGADYKRITVKVNAPYNKINQRILVVDPVTSEHELTCQAEGYPKAEVIWTSSDHQVLSGKTTTTNSKREEKLFNVTSTLRINTTTNEIFYCTFRRLDPEENHTAELVIPELPLAHPPNERGGGGSGGGIWELKKDVYVVELDWYPDAPGEMVVLTCDTPEEDGITWTLDQSSEVLGSGKTLTIQVKAAGDAGQYTCHKGGEVLSHSLLLLHKKEDGIWSTDILKDQKEPKNKTFLRCEAKNYSGRFTCWWLTTISTDLTFSVKSSRGSSDPQGVTCGAATLSAERVRGDNKEYEYSVECQEDSACPAAEESLPIEVMVDAVHKLKYENYTSSFFIRDIIKPDPPKNLQLKPLKNSRQVEVSWEYPDTWSTPHSYFSLTFCVQVQGKSKREKKDRVFTDKTSATVICRKNASISVRAQDRYYSSSWSEWASVPCSGGGGSGGGSGGGGSRNLPVATPDPGMFPCLHHSQNLLRAVSNMLQKARQTLEFYPCTSEEIDHEDITKDKTSTVEACLPLELTKNESCLNSRETSFITNGSCLASRKTSFMMALCLSSIYEDLKMYQVEFKTMNAKLLMDPKRQIFLDQNMLAVIDELMQALNFNSETVPQKSSLEEPDFYKTKIKLCILLHAFRIRAVTIDRVMSYLNASGGGGSGGGDKTHTCPPCPAPEDEGGPSVFLFPPKPKDTLMISRTPEVTCVVVDVSHEDPEVKFNWYVDGVEVHNAKTKPREEQYNSTYRVVSVLTVLHQDWLNGKEYKCKVSNKALPAPIEKTISKAKGQPREPQVYVYPPSREEMTKNQVSLTCLVKGFYPSDIAVEWESNGQPENNYKTTPPVLDEDGSFALVSKLTVDKSRWQQGNVFSCSVMHEALHNHYTQKSLSLSPGK
chain 2: FTVTVPKDLYVVEYGSNMTIECKFPVEKQLDLAALQVYWMMEDKNIIQFVHGEEDLKVQHSSYRQRARLLKDQLSLGNAALQITDVKLQDAGVYTCLIAYKGADYKRITVKVNAPYNKINQRILVVDPVTSEHELTCQAEGYPKAEVIWTSSDHQVLSGKTTTTNSKREEKLFNVTSTLRINTTTNEIFYCTFRRLDPEENHTAELVIPELPLAHPPNERGGGSGAPTSSSTKKTQLQLEHLRLDLEMILNGINNYKNPKLTDMLTFEFYMPKKATELKHLQCLERELKPLEEVLNLAQSKNFHLRPRDLISNINVIVLELKGSETTFMCEYADETATIVEFLNRWITFCQSIISTLTGGGGSGGGDKTHTCPPCPAPEKKGGPSVFLFPPKPKDTLMISRTPEVTCVVVDVSHEDPEVKFNWYVDGVEVHNAKTKPREEQYNSTYRVVSVLTVLHQDWLNGKEYKCKVSNKALPAPIEKTISKAKGQPREPQVYVLPPSREEMTKNQVSLLCLVKGFYPSDIAVEWESNGQPENRYMTWPPVLDSDGSFFLYSKLTVDKSRWQQGNVFSCSVMHEALHNHYTQKSLSLSPGK
B3: IL-2(R38D/K43E/E61R/Q126T)/IL-12(E59A/F60A)/PD-L1(mut2)-Fc (Fc fusion)
chain 1: B2 chain 1
chain 2: B2 chain 2 with R243L, E247Q, Q351T
B4: IL-2(L18R/Q22E/R38D/K43E/E61R)/PD-L1(mut2)-Fc/IL-12(E59A/F60A) (Fc fusion)
chain 1: B1 chain 1
chain 2: B2 chain 2
B5: IL-2(R38D/K43E/E61R/Q126T)/PD-L1(mut2)-Fc/IL-12(E59A/F60A) (Fc fusion)
chain 1: B1 chain 1
chain 2: B2 chain 2 with R243L, E247Q, Q351T

What follows are binders tested against T1, human IL-2 receptor (IL-2Rα, IL-2Rβ, …) (assay: cell-based or functional assay).

| Binder | IL-2 biological activity, HEK-IL-2 [%] | IL-2 biological activity, HEK-IL-2-PD-1 [%] |
| --- | --- | --- |
| B1 | < 0.1 | < 0.1 |
| B2 | 4 | 35 |
| B3 | 2 | 20 |
| B4 | 3 | 32 |
| B5 | 3 | 31 |

What follows are binders tested against human IL-12 receptor complex (IL-12Rβ1, IL-12Rβ2) (human, UniProt P42701 24-662; Q99665 24-862) (assay: cell-based or functional assay).
Sequence of human IL-12 receptor complex (IL-12Rβ1, IL-12Rβ2) (Q99665 24-862, chain 2 of 2, other chains not shown): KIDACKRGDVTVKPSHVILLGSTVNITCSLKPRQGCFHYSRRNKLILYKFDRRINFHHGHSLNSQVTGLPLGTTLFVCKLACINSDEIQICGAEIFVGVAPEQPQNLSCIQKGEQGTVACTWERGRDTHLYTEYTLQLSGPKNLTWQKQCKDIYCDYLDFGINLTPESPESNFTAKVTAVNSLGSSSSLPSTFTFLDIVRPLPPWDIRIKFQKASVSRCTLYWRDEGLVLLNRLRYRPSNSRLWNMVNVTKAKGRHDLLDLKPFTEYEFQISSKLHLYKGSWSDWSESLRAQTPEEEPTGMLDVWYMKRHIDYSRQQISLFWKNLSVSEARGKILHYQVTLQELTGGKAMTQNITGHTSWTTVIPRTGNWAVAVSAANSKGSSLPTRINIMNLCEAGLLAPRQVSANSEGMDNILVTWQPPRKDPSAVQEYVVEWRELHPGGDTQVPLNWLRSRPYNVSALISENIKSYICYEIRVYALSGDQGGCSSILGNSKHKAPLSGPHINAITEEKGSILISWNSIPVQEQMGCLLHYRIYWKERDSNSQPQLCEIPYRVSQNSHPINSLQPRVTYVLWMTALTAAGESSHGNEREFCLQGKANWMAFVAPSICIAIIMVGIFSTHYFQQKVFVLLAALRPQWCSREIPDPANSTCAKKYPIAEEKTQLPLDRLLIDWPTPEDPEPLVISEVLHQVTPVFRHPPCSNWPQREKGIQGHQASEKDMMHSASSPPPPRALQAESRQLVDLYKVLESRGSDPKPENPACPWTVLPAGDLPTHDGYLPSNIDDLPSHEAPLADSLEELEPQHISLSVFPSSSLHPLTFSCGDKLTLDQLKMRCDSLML

| Binder | IL-12 biological activity, HEK-IL-12 [%] | IL-12 biological activity, HEK-IL-12-PD-1 [%] |
| --- | --- | --- |
| B1 | 1 | 25 |
| B2 | < 0.2 | 19 |
| B3 | < 0.2 | 25 |
| B4 | 2 | 27 |
| B5 | 1 | 30 |
